Key:
AncSZ = assay: phosphorylation enrichment, bacterial display (enrichment ratio); higher = better substrate or ligand; peptides without Tyr show the background
EPHB1 = EPHB1 (UniProt P54762); assay: as above
EPHB2 = EPHB2 (UniProt P29323); assay: as above
FGFR1 = FGFR1 (UniProt P11362); assay: as above
FGFR3 = FGFR3 (UniProt P22607); assay: as above
Fer (mouse) = assay: as above
Fes = Fes (UniProt P07332); assay: as above
Fyn = Fyn (UniProt P06241); assay: as above
Hck = Hck (UniProt P08631); assay: as above
Jak2 = Jak2 (UniProt O60674); assay: as above
MERTK = MERTK (UniProt Q12866); assay: as above
c-Abl (mouse) = assay: as above
c-Src = assay: as above
Grb2 SH2 = Grb2 SH2 (UniProt P62993); assay: SH2 binding enrichment of the phosphorylated peptide, bacterial display (enrichment ratio); higher = better substrate or ligand; peptides without Tyr show the background
SHP2-C SH2 = assay: as above
c-Src SH2 = assay: as above
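Wherever SH2 binding enrichment of the phosphorylated peptide, bacterial display is given: peptide library displayed on the E. coli surface as eCPX fusions, selected cells deep-sequenced, score is each peptide's frequency after selection divided by its frequency in the input.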
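Wherever phosphorylation enrichment, bacterial display is given: 11-residue human phosphosite peptides and single-mutation variants displayed on the E. coli surface, counted by deep sequencing, each peptide's frequency after selection divided by its frequency in the unselected input library; frequency after pTyr selection over input frequency; kinase dosed for 20-30% of maximal phosphorylation in three min.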

Grb2 SH2, sequence (P62993 whole entry, looked up): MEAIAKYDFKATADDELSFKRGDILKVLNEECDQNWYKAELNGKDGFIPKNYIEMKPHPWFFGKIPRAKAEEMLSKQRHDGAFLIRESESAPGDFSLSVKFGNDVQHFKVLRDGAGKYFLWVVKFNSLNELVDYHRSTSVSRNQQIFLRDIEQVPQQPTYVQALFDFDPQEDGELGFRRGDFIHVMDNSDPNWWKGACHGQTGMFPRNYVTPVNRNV
MERTK, sequence (Q12866 whole entry, looked up): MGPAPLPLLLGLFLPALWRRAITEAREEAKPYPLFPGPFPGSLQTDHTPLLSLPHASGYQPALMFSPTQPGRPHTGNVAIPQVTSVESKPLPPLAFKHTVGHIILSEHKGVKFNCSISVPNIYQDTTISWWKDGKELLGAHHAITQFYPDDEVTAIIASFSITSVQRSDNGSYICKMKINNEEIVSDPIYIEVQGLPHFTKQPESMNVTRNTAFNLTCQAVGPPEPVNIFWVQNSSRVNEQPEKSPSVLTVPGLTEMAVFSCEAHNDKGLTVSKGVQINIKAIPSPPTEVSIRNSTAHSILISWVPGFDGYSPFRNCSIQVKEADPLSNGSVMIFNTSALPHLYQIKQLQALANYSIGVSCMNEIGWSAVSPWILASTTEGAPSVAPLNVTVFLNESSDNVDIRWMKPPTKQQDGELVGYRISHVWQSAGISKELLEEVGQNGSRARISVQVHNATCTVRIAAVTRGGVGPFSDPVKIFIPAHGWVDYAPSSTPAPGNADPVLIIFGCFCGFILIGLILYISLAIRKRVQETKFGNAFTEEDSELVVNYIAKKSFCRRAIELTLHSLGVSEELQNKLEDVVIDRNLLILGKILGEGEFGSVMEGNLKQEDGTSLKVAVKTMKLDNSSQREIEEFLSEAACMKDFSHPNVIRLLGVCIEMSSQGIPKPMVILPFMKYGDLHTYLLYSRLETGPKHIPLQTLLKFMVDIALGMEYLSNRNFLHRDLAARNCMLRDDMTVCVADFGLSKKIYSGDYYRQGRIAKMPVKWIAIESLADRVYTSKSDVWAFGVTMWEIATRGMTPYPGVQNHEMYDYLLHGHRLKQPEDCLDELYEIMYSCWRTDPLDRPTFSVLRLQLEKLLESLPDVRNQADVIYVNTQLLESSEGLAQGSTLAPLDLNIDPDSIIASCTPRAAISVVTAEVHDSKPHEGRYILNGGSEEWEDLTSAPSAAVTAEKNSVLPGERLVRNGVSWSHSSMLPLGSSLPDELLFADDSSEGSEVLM
Fes, sequence (P07332 whole entry, looked up): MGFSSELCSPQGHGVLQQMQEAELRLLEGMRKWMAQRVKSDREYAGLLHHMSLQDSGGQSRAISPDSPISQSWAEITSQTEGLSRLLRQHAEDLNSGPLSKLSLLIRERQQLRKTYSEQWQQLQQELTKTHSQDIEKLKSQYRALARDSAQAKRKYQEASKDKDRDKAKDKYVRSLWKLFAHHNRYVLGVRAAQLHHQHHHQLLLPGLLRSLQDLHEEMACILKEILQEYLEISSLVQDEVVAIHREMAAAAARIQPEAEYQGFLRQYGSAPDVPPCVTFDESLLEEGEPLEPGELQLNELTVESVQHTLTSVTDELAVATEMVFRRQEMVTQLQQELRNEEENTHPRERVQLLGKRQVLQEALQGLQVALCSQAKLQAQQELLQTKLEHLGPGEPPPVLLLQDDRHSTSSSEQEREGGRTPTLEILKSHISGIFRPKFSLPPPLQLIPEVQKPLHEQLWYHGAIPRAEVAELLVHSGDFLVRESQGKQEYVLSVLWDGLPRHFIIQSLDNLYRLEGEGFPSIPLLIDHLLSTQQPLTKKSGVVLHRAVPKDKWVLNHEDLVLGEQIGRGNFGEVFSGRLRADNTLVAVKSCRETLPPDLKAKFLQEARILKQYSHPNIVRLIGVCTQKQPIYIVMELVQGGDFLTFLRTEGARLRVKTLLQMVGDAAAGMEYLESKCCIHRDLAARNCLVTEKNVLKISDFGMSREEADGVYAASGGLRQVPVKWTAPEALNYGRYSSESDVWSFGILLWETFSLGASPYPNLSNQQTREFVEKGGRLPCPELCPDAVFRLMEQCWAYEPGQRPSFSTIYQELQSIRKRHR
FGFR3, sequence (P22607 whole entry, looked up): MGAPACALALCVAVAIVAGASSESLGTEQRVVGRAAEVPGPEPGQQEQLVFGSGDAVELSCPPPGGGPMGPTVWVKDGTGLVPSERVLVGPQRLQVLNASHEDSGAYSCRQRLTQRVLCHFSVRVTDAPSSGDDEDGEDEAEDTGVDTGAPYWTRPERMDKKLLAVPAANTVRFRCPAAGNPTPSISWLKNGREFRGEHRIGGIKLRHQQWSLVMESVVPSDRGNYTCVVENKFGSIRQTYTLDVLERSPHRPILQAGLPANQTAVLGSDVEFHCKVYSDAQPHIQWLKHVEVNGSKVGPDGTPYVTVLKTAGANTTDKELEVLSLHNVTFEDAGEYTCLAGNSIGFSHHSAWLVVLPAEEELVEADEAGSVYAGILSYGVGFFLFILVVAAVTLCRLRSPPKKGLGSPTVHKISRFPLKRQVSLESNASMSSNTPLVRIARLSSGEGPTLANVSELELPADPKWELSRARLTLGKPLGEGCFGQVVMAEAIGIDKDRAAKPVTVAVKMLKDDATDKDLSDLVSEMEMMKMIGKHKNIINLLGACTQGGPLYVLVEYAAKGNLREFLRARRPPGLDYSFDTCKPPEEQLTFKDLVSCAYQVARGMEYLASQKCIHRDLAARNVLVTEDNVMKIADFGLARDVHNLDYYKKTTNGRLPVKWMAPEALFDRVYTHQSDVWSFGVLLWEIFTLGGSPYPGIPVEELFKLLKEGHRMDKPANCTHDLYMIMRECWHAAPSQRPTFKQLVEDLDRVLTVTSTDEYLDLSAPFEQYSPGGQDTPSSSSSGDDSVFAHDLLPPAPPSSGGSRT
EPHB2, sequence (P29323 whole entry, looked up): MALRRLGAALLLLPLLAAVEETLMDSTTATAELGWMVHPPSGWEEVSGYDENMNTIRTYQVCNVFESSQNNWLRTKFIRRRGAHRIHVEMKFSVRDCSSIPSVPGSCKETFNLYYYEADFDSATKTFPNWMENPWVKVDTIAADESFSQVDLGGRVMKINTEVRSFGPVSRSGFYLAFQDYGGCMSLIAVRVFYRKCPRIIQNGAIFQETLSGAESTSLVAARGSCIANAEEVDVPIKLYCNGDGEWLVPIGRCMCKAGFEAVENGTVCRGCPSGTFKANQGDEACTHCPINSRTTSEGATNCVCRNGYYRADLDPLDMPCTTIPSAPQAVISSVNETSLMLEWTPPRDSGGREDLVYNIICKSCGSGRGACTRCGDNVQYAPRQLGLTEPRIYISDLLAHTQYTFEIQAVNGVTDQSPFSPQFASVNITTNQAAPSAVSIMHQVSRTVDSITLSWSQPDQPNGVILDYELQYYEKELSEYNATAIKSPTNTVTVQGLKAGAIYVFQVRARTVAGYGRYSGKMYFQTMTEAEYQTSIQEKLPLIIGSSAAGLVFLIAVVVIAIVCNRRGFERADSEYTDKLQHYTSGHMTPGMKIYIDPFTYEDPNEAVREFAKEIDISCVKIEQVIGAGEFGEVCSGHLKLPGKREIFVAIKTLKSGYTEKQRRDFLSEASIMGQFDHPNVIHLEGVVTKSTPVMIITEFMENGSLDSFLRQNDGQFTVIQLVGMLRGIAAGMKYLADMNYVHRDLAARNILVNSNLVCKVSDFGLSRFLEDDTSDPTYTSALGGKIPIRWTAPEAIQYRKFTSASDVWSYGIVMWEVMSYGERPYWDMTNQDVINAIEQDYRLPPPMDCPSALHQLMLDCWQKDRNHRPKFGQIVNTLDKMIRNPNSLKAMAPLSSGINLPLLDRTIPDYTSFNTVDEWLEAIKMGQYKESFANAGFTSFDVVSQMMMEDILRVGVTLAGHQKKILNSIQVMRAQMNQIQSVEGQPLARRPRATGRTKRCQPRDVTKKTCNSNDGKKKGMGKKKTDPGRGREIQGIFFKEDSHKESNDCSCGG
EPHB1, sequence (P54762 whole entry, looked up): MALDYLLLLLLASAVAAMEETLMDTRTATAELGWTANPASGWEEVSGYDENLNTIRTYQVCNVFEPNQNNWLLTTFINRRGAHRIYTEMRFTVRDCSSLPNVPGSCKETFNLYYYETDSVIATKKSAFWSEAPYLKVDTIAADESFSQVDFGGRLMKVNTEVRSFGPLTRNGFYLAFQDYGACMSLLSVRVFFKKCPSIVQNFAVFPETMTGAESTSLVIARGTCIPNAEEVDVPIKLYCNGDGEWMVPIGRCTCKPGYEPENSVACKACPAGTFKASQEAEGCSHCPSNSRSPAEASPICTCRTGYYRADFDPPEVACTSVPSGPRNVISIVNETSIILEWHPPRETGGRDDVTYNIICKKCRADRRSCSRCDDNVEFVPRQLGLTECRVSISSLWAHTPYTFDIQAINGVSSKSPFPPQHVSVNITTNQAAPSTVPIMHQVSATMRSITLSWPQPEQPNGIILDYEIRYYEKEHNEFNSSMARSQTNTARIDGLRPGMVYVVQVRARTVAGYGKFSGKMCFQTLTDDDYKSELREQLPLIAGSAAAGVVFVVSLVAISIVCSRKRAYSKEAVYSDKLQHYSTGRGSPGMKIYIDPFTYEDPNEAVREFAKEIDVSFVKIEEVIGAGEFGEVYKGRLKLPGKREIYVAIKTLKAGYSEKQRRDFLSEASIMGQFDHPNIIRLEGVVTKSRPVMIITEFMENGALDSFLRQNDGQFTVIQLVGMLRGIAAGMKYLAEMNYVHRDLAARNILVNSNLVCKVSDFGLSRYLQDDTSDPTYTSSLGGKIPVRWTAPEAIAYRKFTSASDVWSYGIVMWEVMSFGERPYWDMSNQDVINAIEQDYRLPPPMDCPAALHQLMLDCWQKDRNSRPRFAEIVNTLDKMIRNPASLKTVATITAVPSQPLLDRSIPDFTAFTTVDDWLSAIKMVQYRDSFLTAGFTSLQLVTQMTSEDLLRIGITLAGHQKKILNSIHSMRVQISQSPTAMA

Sequence	phosphorylation enrichment (AncSZ)	phosphorylation enrichment (EPHB1)	phosphorylation enrichment (EPHB2)	phosphorylation enrichment (FGFR1)	phosphorylation enrichment (FGFR3)	phosphorylation enrichment (Fer (mouse))	phosphorylation enrichment (Fes)	phosphorylation enrichment (Fyn)	phosphorylation enrichment (Hck)	phosphorylation enrichment (Jak2)	phosphorylation enrichment (MERTK)	phosphorylation enrichment (c-Abl (mouse))	phosphorylation enrichment (c-Src)	SH2 binding enrichment (Grb2 SH2)	SH2 binding enrichment (SHP2-C SH2)	SH2 binding enrichment (c-Src SH2)
NGVSFYINLCQ [IGF2R_Y2025_YF]	1.5	1.11	0.699	0.568	1.01	0.671	2	0.452	0.567	1.92	0.478	1.16	0.472	0.791	0.651	0.396
NHFKIHNLCAE [PTEN_Y68_Y68H_YF]	0.58	0.384	0.374	0.428	0.441	0.384	0.642	0.466	0.394	0.459	0.437	0.367	0.432	1.04	0.751	0.513
NKVKFYIPDMN [NCR1_Y84]	0.743	0.496	0.476	0.432	0.66	0.448	0.865	0.396	0.432	0.8	0.388	0.602	0.567	0.954	0.849	0.854
NMSRIYSTAKV [ACE_Y151]	0.573	0.342	0.493	0.451	0.448	0.416	0.563	0.477	0.528	0.535	0.417	0.545	0.477	0.901	1.25	0.545
NNDLCYWVLEL [IARS1_Y434_P437L]	2.47	1.37	1.05	7.77	7.8	1.33	1.88	5.45	4.01	3.65	2.33	1.31	5.34	0.664	0.518	0.55
NNRVFYGNSDR [RS1_Y177]	0.437	0.284	0.378	0.375	0.411	0.338	0.536	0.395	0.337	0.546	0.315	0.499	0.414	0.852	0.735	0.505
NNTFLYQLVFD [EXO1_Y284]	1.35	5.34	4.11	1.65	1.72	4.67	1.21	1.7	2.58	1.14	5.99	0.684	2.28	1.44	1.15	1.14
NPQKPYFIRLY [WAS_Y83_S82P]	1.01	0.561	0.599	0.395	0.675	0.474	1.08	0.354	0.443	0.906	0.344	0.544	0.303	0.909	0.699	0.542
NPQKSCFIRLY [WAS_Y83_Y83C]	1.02	0.597	0.503	0.441	0.769	0.481	1.14	0.504	0.494	1.07	0.396	0.783	0.403	0.783	0.654	0.533
NPQKSYFILLF [WAS_Y83_R86L_YF]	0.836	0.546	0.551	1.01	0.906	0.414	0.969	0.449	0.43	1.05	0.398	0.606	0.337	1.27	0.944	0.573
NQILPYIEELV [PPP2R1B_Y341_K343E]	1.37	0.673	0.644	0.533	0.781	0.931	1.28	0.53	0.568	1.45	0.504	0.875	0.507	0.979	0.953	0.725
NTCNRYCCDEI [ITGB3_Y660_R662C]	1.44	0.694	0.594	0.595	0.88	0.612	1.49	0.577	0.574	1.43	0.538	1.03	0.541	0.841	0.752	0.557
NTGDFCDLFGG [PTPN11_Y63_Y63C_YF]	1.01	0.584	0.555	0.511	0.653	0.487	1.11	0.499	0.578	0.969	0.486	0.655	0.413	1.15	0.823	0.632
NTQRPHYKGGG [TYROBP_Y111_Y111H]	0.428	0.326	0.332	0.316	0.486	0.422	0.549	0.402	0.384	0.491	0.391	0.605	0.361	1.44	1.77	1.01
NVLPEYKLQAP [KCNH2_Y388_D383N]	0.784	0.518	0.632	0.411	0.619	0.402	0.949	0.508	0.527	0.813	0.43	0.677	0.439	0.906	0.564	0.455
NVSILYTASQA [CTNNA1_Y222_P219S]	0.892	0.548	0.51	0.434	0.725	0.629	1.02	0.447	0.547	0.95	0.505	0.787	0.531	0.921	0.685	0.499
NVVNEYSSELE [FGB_Y172]	1.19	0.611	0.627	0.565	0.769	0.515	1.25	0.515	0.628	0.99	0.422	0.717	0.482	0.932	0.463	0.556
